Measurements published in article PMC11463774, “Structure of the Nmd4-Upf1 complex supports conservation of the nonsense-mediated mRNA decay pathway between yeast and humans” (PLOS Biology, 2024).

T1: His6-ZZ-Nmd4 FL;Upf1-HD-His6 (Saccharomyces cerevisiae;Saccharomyces …, UniProt Q12129;P30771 1-218;221-851, |)
T1 sequence 1: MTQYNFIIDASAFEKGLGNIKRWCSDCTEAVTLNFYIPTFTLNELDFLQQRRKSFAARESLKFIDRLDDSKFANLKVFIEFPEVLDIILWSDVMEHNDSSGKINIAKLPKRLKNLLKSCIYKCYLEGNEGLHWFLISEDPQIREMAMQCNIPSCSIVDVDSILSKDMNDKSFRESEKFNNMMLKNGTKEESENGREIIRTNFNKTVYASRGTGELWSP
T1 sequence 2: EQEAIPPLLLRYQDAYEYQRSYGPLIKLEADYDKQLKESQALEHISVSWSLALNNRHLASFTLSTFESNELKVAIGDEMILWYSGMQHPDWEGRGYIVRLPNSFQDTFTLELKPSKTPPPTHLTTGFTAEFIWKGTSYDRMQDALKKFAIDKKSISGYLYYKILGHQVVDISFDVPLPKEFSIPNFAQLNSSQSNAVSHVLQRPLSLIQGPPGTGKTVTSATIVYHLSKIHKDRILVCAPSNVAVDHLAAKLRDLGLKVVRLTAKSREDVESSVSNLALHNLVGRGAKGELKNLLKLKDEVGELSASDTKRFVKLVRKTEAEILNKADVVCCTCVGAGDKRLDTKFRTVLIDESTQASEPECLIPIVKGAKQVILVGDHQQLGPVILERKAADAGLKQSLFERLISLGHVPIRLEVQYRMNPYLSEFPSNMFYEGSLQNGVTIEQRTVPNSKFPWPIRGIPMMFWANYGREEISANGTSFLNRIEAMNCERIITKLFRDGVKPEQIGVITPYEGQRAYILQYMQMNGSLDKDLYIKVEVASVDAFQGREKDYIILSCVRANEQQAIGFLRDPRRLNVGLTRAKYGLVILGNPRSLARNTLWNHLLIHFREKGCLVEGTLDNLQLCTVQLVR

T2: His6-ZZ-Nmd4 FL (Saccharomyces cerevisiae, UniProt Q12129 1-218)
T2 sequence: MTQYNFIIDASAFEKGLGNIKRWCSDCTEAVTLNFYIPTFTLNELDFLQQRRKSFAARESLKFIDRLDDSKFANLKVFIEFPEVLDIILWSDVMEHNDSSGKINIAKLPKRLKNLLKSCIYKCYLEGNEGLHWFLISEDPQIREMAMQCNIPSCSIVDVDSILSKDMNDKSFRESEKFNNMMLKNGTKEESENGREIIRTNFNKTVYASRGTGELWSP

T3: Upf1-HD-His6 (Saccharomyces cerevisiae, UniProt P30771 221-851)
T3 sequence: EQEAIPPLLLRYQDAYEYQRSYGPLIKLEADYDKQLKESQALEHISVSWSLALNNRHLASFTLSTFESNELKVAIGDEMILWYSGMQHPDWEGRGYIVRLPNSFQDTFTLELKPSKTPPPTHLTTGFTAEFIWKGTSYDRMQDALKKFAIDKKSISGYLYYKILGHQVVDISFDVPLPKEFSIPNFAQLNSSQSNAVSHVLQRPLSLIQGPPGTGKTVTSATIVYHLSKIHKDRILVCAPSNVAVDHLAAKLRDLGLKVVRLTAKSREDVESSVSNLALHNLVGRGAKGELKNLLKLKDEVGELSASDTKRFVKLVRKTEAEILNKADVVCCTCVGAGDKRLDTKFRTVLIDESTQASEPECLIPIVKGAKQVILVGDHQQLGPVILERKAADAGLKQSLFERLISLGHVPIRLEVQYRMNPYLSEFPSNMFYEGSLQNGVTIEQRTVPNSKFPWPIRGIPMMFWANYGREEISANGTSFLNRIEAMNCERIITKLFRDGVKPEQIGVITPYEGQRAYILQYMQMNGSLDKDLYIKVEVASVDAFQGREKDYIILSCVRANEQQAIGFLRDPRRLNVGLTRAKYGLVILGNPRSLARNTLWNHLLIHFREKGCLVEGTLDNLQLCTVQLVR

T4: Upf1-HD-His6 (S. cerevisiae Upf1 helicase domain, residues 221 to 851) (S. cerevisiae, UniProt P30771 221-851)
T4 construct: Upf1, S. cerevisiae, helicase domain, residues 221 to 851; Used in ITC and, by the buffer D200 preparation, in the ATPase assays; also called yeast Upf1 helicase domain; source: E. coli BL21 (DE3) Gold, purified (TALON, HiTrap Heparin, S200 SEC); not shown: His6, C-terminal, kept
T4 sequence (looked up): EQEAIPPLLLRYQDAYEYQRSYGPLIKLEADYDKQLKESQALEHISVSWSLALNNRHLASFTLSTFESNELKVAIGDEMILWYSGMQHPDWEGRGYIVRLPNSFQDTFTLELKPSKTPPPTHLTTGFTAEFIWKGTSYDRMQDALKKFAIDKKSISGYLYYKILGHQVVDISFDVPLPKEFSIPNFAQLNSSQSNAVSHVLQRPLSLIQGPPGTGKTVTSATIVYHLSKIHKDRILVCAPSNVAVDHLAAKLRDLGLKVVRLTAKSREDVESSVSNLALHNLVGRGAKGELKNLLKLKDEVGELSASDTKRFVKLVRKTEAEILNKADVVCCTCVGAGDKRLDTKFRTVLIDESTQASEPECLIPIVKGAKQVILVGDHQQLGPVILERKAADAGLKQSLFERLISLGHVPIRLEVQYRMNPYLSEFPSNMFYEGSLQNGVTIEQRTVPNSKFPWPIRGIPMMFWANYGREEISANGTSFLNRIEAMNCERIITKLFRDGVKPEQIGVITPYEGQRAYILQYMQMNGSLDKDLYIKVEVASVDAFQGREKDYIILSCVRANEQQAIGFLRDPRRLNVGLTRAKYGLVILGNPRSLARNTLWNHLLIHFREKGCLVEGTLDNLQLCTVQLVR


How the values were obtained:
[1] = target: T1, His6-ZZ-Nmd4 FL;Upf1-HD-His6; test: ITC; preformed Nmd4/Upf1-HD complex; no nucleotide; 5 mM Mg2+; n 0.47; ITC: 100 mM Bis-Tris pH 6.5, 133 mM NaCl, 5 mM MgCl2, 5 mM 2-mercaptoethanol, 20 C; protein 20-30 uM in cell titrated with 230-280 uM RNA; conditions: protein: recombinant;recombinant; tags: N-terminal His6-ZZ (3C cleavable, kept for ITC);C-terminal His6; copies: 1;1; single strand
His6-ZZ-Nmd4 FL = target: T2, His6-ZZ-Nmd4 FL; test: ITC; 5 mM Mg2+; ITC: 100 mM Bis-Tris pH 6.5, 133 mM NaCl, 5 mM MgCl2, 5 mM 2-mercaptoethanol, 20 C; protein 20-30 uM in cell titrated with 230-280 uM RNA; conditions: protein: recombinant; tags: N-terminal His6-ZZ (3C cleavable, kept for ITC); single strand
Upf1-HD-His6 = target: T3, Upf1-HD-His6; test: ITC; no nucleotide; 5 mM Mg2+; ITC: 100 mM Bis-Tris pH 6.5, 133 mM NaCl, 5 mM MgCl2, 5 mM 2-mercaptoethanol, 20 C; protein 20-30 uM in cell titrated with 230-280 uM RNA; conditions: protein: recombinant; tags: C-terminal His6; single strand
[2] = target: T4, Upf1-HD-His6 (S. cerevisiae Upf1 …); test: ITC; His6-ZZ-Nmd4 proteins (260 μM full-length and « arm », 330 μM PIN) or His6-ZZ (277 μM) injected into Upf1-HD-His6 (30 to 35 μM); 20°C; 100 mM Bis-Tris pH 6.5, 200 mM NaCl, 5 mM MgCl2, 5 mM 2-mercaptoethanol; one-binding-site model; conditions: both partners purified

Kd [2] [nM] | dH [2] [kcal/mol] | stoichiometry N [2] | Binder | Kd [1] [nM] | Kd (His6-ZZ-Nmd4 FL) [µM] | Kd (Upf1-HD-His6) [nM]
 |  |  | UUUUUUUUUUUUUUUUUUUUUUUUUUUUUU (ssRNA) [RNA poly(U)30] | 440 ± 210 | 8.1 ± 2.95 | 1030 ± 280
1960 | -12.4 | 0.98 | His6-ZZ-Nmd4 « arm » (residues 168 to 218) (domain or fragment, S. cerevisiae, UniProt Q12129 168-218, looked up, Nmd4, S. cerevisiae, C-terminal « arm », residues 168 to 218; also called « arm » region; source: E. coli BL21 (DE3) Gold, purified; not shown: His6, N-terminal, kept; ZZ (tandem Z-domain of S. aureus protein A), N-terminal, kept) NDKSFRESEKFNNMMLKNGTKEESENGREIIRTNFNKTVYASRGTGELWSP |  |  | 
2100 | -14.8 | 1.08 | His6-ZZ-Nmd4 full-length protein (S. cerevisiae) (natural protein, UniProt Q12129 1-218, looked up, also called His6-ZZ-Nmd4 FL; full-length Nmd4; source: E. coli BL21 (DE3) Gold, purified (Ni-NTA, HiTrap Heparin, S75 SEC); not shown: His6, N-terminal, kept; ZZ (tandem Z-domain of S. aureus protein A), N-terminal, kept) MTQYNFIIDASAFEKGLGNIKRWCSDCTEAVTLNFYIPTFTLNELDFLQQRRKSFAARESLKFIDRLDDSKFANLKVFIEFPEVLDIILWSDVMEHNDSSGKINIAKLPKRLKNLLKSCIYKCYLEGNEGLHWFLISEDPQIREMAMQCNIPSCSIVDVDSILSKDMNDKSFRESEKFNNMMLKNGTKEESENGREIIRTNFNKTVYASRGTGELWSP |  |  | 
